Assay results published in PMC6819821, “Interaction of Cholesterol With the Human SLC1A5 (ASCT2): Insights Into Structure/Function Relationships” (Frontiers in Molecular Biosciences, 2019).

What was measured:
[1] = target: the molecule itself; test: cross-linking; intact HeLa cells treated with 0.75% formaldehyde for 10 min at room temperature, stopped with 125 mM glycine; 50 ug total lysate on 8% SDS-PAGE, immunoblot with anti-hASCT2
[2] = target: the molecule itself; test: cross-linking; purified WT hASCT2 in detergent, without or with 0.75 mg CHEMS, 1 or 4% formaldehyde in 20 mM Tris HCl pH 9.0 for 2 min at 23°C, stopped with 1.25 M glycine; 8% SDS-PAGE, immunoblot with anti-hASCT2

B1: human SLC1A5 (ASCT2), endogenous in HeLa cells (natural protein, human (endogenous in HeLa), UniProt Q15758 1-541, looked up)
chain: MVADPPRDSKGLAAAEPTANGGLALASIEDQGAAAGGYCGSRDQVRRCLRANLLVLLTVVAVVAGVALGLGVSGAGGALALGPERLSAFVFPGELLLRLLRMIILPLVVCSLIGGAASLDPGALGRLGAWALLFFLVTTLLASALGVGLALALQPGAASAAINASVGAAGSAENAPSKEVLDSFLDLARNIFPSNLVSAAFRSYSTTYEERNITGTRVKVPVGQEVEGMNILGLVVFAIVFGVALRKLGPEGELLIRFFNSFNEATMVLVSWIMWYAPVGIMFLVAGKIVEMEDVGLLFARLGKYILCCLLGHAIHGLLVLPLIYFLFTRKNPYRFLWGIVTPLATAFGTSSSSATLPLMMKCVEENNGVAKHISRFILPIGATVNMDGAALFQCVAAVFIAQLSQQSLDFVKIITILVTATASSVGAAGIPAGGVLTLAIILEAVNLPVDHISLILAVDWLVDRSCTVLNVEGDALGAGLLQNYVDRTESRSTEPELIQVKSELPLDPLPVPTEEGNPLLKHYRGPAGDATVASEKESVM
notes: ASCT2 (SLC1A5), sodium-dependent neutral amino acid antiporter, endogenous in HeLa cells; Detected with anti-hASCT2 (rabbit, Millipore) after formaldehyde cross-linking of intact cells; also called hASCT2; source: endogenous, intact HeLa cells (cross-linked in the cells, then total lysate)
In the case of B1, the “stoichiometry N” value [1] is reported as 3.

B2: recombinant hASCT2-6His WT (natural protein, human)
chain: B1 chain
notes: human ASCT2 (SLC1A5), wild type, construct pPICZB-ASCT2-6His; no cleavage of the tag is described; In the cross-linking the protein was detected with anti-hASCT2; also called purified WT hASCT2; SLC1A5; source: P. pastoris X-33 (pPICZB-ASCT2-6His), solubilised in C12E8, purified (Ni-NTA, PD-10)
B2 was tested, and the “stoichiometry N” value [2] was 3.
